Assay results reported in US20220220200A1 (published 2022).

T1: CD19 antigen (analyte of the Octet affinity assay) (UniProt P15391 20-291)
T1 chain: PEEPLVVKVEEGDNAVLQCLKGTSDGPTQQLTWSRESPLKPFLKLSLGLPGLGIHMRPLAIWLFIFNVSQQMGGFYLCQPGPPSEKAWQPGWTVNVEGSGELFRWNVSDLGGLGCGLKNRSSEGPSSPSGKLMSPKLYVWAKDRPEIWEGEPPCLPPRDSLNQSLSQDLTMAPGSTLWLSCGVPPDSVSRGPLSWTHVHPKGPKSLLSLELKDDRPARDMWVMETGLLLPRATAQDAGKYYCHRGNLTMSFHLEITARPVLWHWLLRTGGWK

B1: #62 anti-CD19 scFv-rFc (Fc fusion)
scFv: QSVVTQPPSVSGAPGQRVTISCTGSSSNIGAGYDVHWYQQLPGTAPKLLIYENTNRPSGVPDRFSGSKSGTSASLAITGLQAEDEADYYCQSYDSSLSGWRVFGGGTKLTVLGSRGGGGSGGGGSGGGGSLEMAEVQLVQSGAEVKKPGESLKISCKGSGYSFTNSWIGWVRQMPGKGLEWMGLIYPDDSDTRYSPSFQGQVTISADSAINTAYLQWSSLKASDTAMYYCARQSTYIYGGYYDTWGQGTLVTVSS
B2: CD19 antigen (receptor)
chain: T1 chain
B3: #78 anti-CD19 scFv-rFc (Fc fusion)
scFv: QAVLTQPPSVSEAPRQRVTISCSGSSSNIGNNAVSWYQQLPGKAPKLLIYYDDLLPSGVSDRFSGSKSGTSASLAISGLQSEDEADYYCAAWDDSLNGWVFGGGTKVTVLGSRGGGGSGGGGSGGGGSLEEVQLVQSGAEVKKPGESLKISCKGSGYSFTSYWIGWVRQMPGKGLEWMGIIYPGDSDTRYSPSFQGQVTISADKSISTAYLQWSSLKASDTAMYYCARLSYSWSSWYWDFWGQGTLVTVSS

Assays:
[1] = molecular target: T1, CD19 antigen (analyte of the Octet …); assay: BLI
FMC63 = assay: BLI

Binder	Kd [1] [nM]	Kd (FMC63) [nM]
B1	51.1	
B2		10.7
B3	21.9	
